Assays:
[1] = target: extracellular domain of EpCAM (EpCAM ECD) (UniProt P16422); assay: fluorescence increase of the DARPin-SiP conjugate on adding the antigen (plate reader); probe pretreated with DTT; probe 500 nM, EpCAM ECD 1 uM
[2] = target: extracellular domain of EpCAM (EpCAM ECD) (UniProt P16422); assay: fluorescence increase of the DARPin-SiP conjugate on adding the antigen (plate reader); conjugate 500 nM (not pretreated with DTT), EpCAM ECD 1 uM; fold activation = fluorescence at 31 min divided by that just before EpCAM ECD
[3] = target: extracellular domain of EpCAM (EpCAM ECD) (UniProt P16422); assay: other fluorescence titration; Kd of the probe for EpCAM ECD calculated from the increase of SiP fluorescence (Figure S10)

UniProt P16422, sequence (P16422 24-265): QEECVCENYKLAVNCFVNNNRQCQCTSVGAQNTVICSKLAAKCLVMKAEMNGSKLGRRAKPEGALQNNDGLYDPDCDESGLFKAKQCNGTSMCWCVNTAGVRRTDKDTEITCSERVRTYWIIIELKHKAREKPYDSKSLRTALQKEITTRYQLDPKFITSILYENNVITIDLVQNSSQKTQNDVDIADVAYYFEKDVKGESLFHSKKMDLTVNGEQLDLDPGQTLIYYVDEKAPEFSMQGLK

fold activation of SiP fluorescence on adding EpCAM ECD [1]: > 12 fold
fold increase of SiP fluorescence on adding EpCAM ECD [2]: 7 fold
Kd [3]: 238 nM
Substance: Ec1 K152C-5-Gly SiP conjugate (designed binder)

Reference: PMC12396215
